Measurements taken from US20250034594A1, “RNA-GUIDED GENOME RECOMBINEERING AT KILOBASE SCALE” (THE BOARD OF TRUSTEES OF THE LELAND STANFORD JUNIOR …, priority 2021, published 2025).

B1: SSAP_17: SEQ ID NO: 186 (protein)
chain: ATNDELKNQLANKQNGGQVASAQSLDLKGLLEAPTMRKKFEKVLDKKAPQFLTSLLNLYNGDDYLQKTDPMTVVTSAMVAATLDLPIDKNLGYAWIVPYKGRAQFQLGYKGYIQLALRTGQYKSINVIEVRDGELLKWNRLTEEIELDLDNNTSEKVIGYCGYFQLINGFEKTVYWTRKEIEAHKKKFSKSDFGWKKDYDAMAKKTVLRNMLSKWGILSIDMQTAVTEDEAEPRERKDVTEDESIPDIIDAPITPSDTLEAGSEVQGSMI
B2: SSAP_252: SEQ ID NO: 421; Bacteroides pyogenes DSM 20611 = JCM 6294 (protein)
chain: QVADPQSVLNSAVIAATLDLPINPNLGFAAIVPYNDRKSGKCIAQFQLMYKGLVELCLRSGQFASLIDEVVYEGQIVKKNKFTGEYIFDEDAKTSNKVIGYMAYFRLVNGFEKTFYMTSEEVTAHAKAYSQSFKSGYGVWKDNFDIMARKTVLKLLLSKYAPKSIEMQRAITFDQAAVKGDLTETNVDEAEIEYIDNESGSDKIKQAAEDAVIQSQQKTLL
modifications: Bacteroides pyogenes
B3: SSAP_270: SEQ ID NO: 439; Lactococcus sp. DD01 (protein, listed as Lactococcus sp.)
chain: ANLTPTQTVLKSDAAKRKFEEVLGKKTNGFVGSLLSLVGSTNLKNVDSNSVMTAAMKAATLDLPIEPSLGFAYVIPYGREAQFQIGYKGLIQLAIRSGQVTKLNAGPVYENQFIKYDSLFEELEIDFSMPQGVEIAGYFASMELANGFRKIIYWDKEKVTAHGKRFSKSFNRSSSPWQTDFDAMATKTVLKAMLSTYAPLSTEMQQAIVADNESATPKDATPVTDDLVLEAVEDSKQIEENEIINDQVASENYQEPQGEPEVLDLEL
B4: SSAP_138: SEQ ID NO: 307; unclassified Coprococcus (protein, listed as Coprococcus sp.)
chain: ANNIDLKQELAEQASKVPAKKDEEVKLTKSMTIPDMVKAMMPEIKKALPAVMTPERFTRIALSALNTTPALNQCTPMSFLAALMNAAQLGLEPNTPLGQAYLIPYKNHGTLECQFQIGYKGLIELAYRSGQMQTIQAQTVYENDEFAYQYGLEPVLVHRPAYSDRGEVKYFYGIFKTVNGGYGMAVMSRAEMDLYAKTYSKAYDSSYSPWKSNYEDMAKKTVIKQALKYAPIKTDFQRALSFDETIKKEISLDMSTVKNELLDVA
B5: SSAP_278: SEQ ID NO: 447; Paraliobacillus ryukyuensis (protein, listed as Paraliobacillus ryukyuensis)
chain: ATNDTLKNQISNKKNNQVAEGKQGTTMKGLLNSPAVMKRFEEVLGKRANQFTASILSLYNNEKTLQKSEPMSVISSAMIAATLDLPIDKNLGYAWIVPYGNKAQFQLGYKGYIQLALRTGQYRNINVIEVYEGELVKWNRLTEELELDFEQKKSDKVIGYTGYFELINGFRKTVYWSKADIEKHKQKFSKSNFGWSNDWDAMAKKTVIRNMLNKWGILSIDMQKAYSTDEIEQEQESNDFIDGEWAEVSEDDITEAMNEV
B6: SSAP_5: SEQ ID NO: 174 (protein)
chain: ANELGIFSVDNLNMTTIKQYLDGGGKASDAELVLLINLCKQNNMNPFMKEVYFIKYGNQPAQIVVSRDFYRKRAFQNPNFVGIEVGVIVLNKDGVLEHNEGTFKTHEQELVGAWARVHLKNTEIPVYVAVSYDEYVQMKDGHPNKMWTNKPCTMLGKVAESQALRMAFPAEFSGTYGEEEYPEPEKEPREVNGVKEPDRAQIESFDKEDYAAKKIEELKEKAQPQKEVVEETGEVIDEEPLEGF
B7: SSAP_159: SEQ ID NO: 328; Clostridium hathewayi CAG: 224 (protein, listed as Clostridium hathewayi)
chain: ANDIRGELARRASGTETQAVKLTKNMSIPDMIKALEPEIKRALPTILTPERFTRIALSAINNTPKLAECSPMSFIAALMNAAQLGLEPNTPLGQAFLIPYKVKGSLECQFQIGYRGMIDLAYRNERVQSIEAHTVYENDVFEYELGLNPRLVHIPTMEEPGDPIAFYGIFRLDNGGFRFEVMNKNAIDAYAARYSKAYDSASSPWKNNYESMACKTVLKQLLKYSPMKSEFQKAVSMDESVKTELSVDMSEVQNVNLIEETQEDAA
B8: SSAP_268: SEQ ID NO: 437; Oceanobacillus sp. E9 (protein, listed as Oceanobacillus sp.)
chain: ATNDSLKNQLSSKQGNQNTPSGYTIKQLMGAESVKKRFEEMLDSKASQFMASVINLVNGDTNLQKCDQMSVVSSAMVAATLDLPIDRNLGYAWVIPYGNQATFQLGYKGYIQLALRSGQYRNINVIEVYEGELQSFNRLTEEIELDFEKRTSDKVIGYTGFFELINGFRKTVYWSKAEIEKHKNKFSKSGFGWKNDWDAMAKKTVVRNMLNKWGILSIDMQKAYVEETKDPSEPNGEVIDLNLTEDELTAAQEQFSDENANE
B9: SSAP_49: SEQ ID NO: 218 (protein)
chain: TNNQLATQTKRNITTDPSLLTGADIKKYFDPQNLLTEKQVGQALALCKGRNLNPFANEVYIVAYTNRNGGKEFSLIVSKEAFLKRAAQCKDYEGFEAGVVVVDSEGVMHERKGAIMLPEDTLIGGWARVHRKNFKVPVEIVVSREEYDKKQSTWNTMPATMIRKVALVNALREAFPEDLGNMYTEDDGGETFDRIKDVTPQESREDVVARKMAEIEQFNKEQETNHADPEPAQTEETIQGELLDGELEY
B10: SSAP_214: SEQ ID NO: 383; Clostridium tunisiense (protein)
chain: TTKANVTSVKNALKEQIQVQQVAAQTDTSFQGVLTKQLQHQFKAIQSLVPKHVTPERLCRIGINAASRNPQLMNCTPETIVGAIVNCATLGLEPNLLGHAYIVPFYNNKTGKMEAQFQVGYKGALDLIRRTGAVSTLSAHEVYGPRSIFWTQYFY
modifications: Clostridium tunisiense
B11: SSAP_307: SEQ ID NO: 476; Acetobacterium dehalogenans (protein)
chain: CLRSWTRSFSNSVPLKIRFRLLYTAFLSQGSPLSSVNTTQSADKGSPIFFYAMFKTKDGGYGFEVMSVEDVRAHAKKYSQSFSSAYSPWSKNFEEMAKKTVLKKALKYAPLKSDFVRGIVVDETIKREISEDMYAAPSIEIEYEVDEDGVIQDEPTSNELTEAEK
modifications: Acetobacterium dehalogenans
B12: SSAP_134: SEQ ID NO: 303; Andreesenia angusta (protein, listed as Andreesenia angusta)
chain: SNLKNQLANKAGGTATKKQPQTMQDWIKVMEPQIKKALPSVITAERFTRMALTAISTNPKLAECTPESFMGALMNAAQLGLEPNTPLGQAYLIPYGKSVQFQVGYKGLMELAQRSGQFKSIYAHTVYENDEFEVEYGLTQNIVHKPNFDDRGKPIGFYAVYKLTNGGENFVFMTQREVEEFGKAKSKTFNNGPWKTDFEAMAKKTVLKQLLKYAPIKVEFQREIAQDATIKTEIAEDMTEVPEEMVEAEYEVVEQNTMAEDADLKGTPFETK
B13: SSAP_122: SEQ ID NO: 291; Clostridium transplantifaecale (protein)
chain: TDVKEELARKAGNTGKQEIRLNKNMSIPDMVKVLEPEIKRALPSVLTPERFTRMALSAINNTPKLAECSPMSFIAALMNAAQLGLEPNTPLGQAYLIPYKNKNQLECQFQIGYKGYIDLAYRTGQVQMIQAQAVHEFDYFEYEYGLTPKLVHRPGEGERGEITYFYGLFKMINGGFGFEVMNRAAMDAFAKQYSQSINSKYSPWNSQYEEMAKKTIIKKALKYGPVKSDFQKAISMDESIKTELSIDMSEVRNEDLIDGEFEEAA
modifications: Clostridium transplantifaecale

What was measured:
Assay type in all cases: cell-based
gene editing with dCas9 = experiment: Screen of 322 new SSAP proteins, gene editing activity with dCas9 (Table 5); design: dCas9 with SSAP activity: scale not given here
In short: (§1)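 Synthetic SSAP candidates, identified computationally, were tested in editing screens using both Cas9 and dCas9.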

gene editing with Cas9 = experiment: Screen of 322 new SSAP proteins, gene editing activity with Cas9 (Table 5); design: Cas9 with SSAP activity: scale not given here
In short: as §1

[1] = system: gene editing with Cas9 and dCas9; experiment: Screen of 322 new SSAP proteins, activity across all experiments (Cas9 and dCas9, Table 5); design: scale not given here
In short: as §1

Molecule | dCas9 with SSAP activity (gene editing with dCas9) | dCas9 with SSAP activity (normalized) (gene editing with dCas9) | Cas9 with SSAP activity (gene editing with Cas9) | Cas9 with SSAP activity (normalized) (gene editing with Cas9) | Activity across all experiments [1]
B1 | −1.088 | −0.491 | −0.287 | −0.195 | −0.687
B2 | −0.876 | −0.635 | −0.275 | −0.560 | −0.575
B3 | −0.896 | −0.293 | 0.154 | 0.174 | −0.371
B4 | −1.000 | −0.320 | −1.429 | −0.887 | −1.214
B5 | −1.129 | −1.000 | 1.070 | 2.231 | −0.030
B6 | −0.854 | −0.392 | −0.026 | −0.032 | −0.440
B7 | −1.156 | −0.358 | 1.622 | 2.756 | 0.233
B8 | −1.151 | −0.400 | −0.160 | −0.383 | −0.656
B9 | −0.987 | −0.289 | −0.515 | −0.176 | −0.751
B10 | −1.088 | −1.120 | −0.428 | −0.545 | −0.758
B11 | −1.100 | −0.907 | −1.090 | −2.185 | −1.095
B12 | −1.053 | −0.424 | −1.284 | −1.104 | −1.168
B13 | −1.142 | −0.148 | 1.429 | 0.558 | 0.144
